# From the DeepSol protein solubility set
# Test: soluble on expression in E. coli; label from the status in PepcDB or PDB records
row,Sequence,soluble on expression in E. coli
1,MSANDFKPETWTSSANEALRVSIVGENAVQFSPLFTYPIYGDSEKIYGYKDLIIHLAFDSVTFKPYVNVKYSAKLGDDNIVDVEKKLLSFLPKDDVIVRDEAKWVDCFAEERKTHNLSDVFEKVSEYSLNGEEFVVYKSSLVDDFARRMHRRVQIFSLLFIEAANYIDETDPSWQIYWLLNKKTKELIGFVTTYKYWHYLGAKSFDEDIDKKFRAKISQFLIFPPYQNKGHGSCLYEAIIQSWLEDKSITEITVEDPNEAFDDLRDRNDIQRLRKLGYDAVFQKHSDLSDEFLESSRKSLKLEERQFNRLVEMLLLLNNS,soluble
2,MSANLPPAFKPIAHYIKIANENASRDPVIYYWSLLCMALGPVETTFDEISWKLLQTSIRLEKDHINDRDSLREYIDEPGGVVNNCQRAQNISMEIEQKNVSCEKLREKIAKINQKILIGKGKLSEVNEELSKKQNFEESLKQKIEIMELQINKNQSKKDKEVKSINVLIRLVAYRKLTLIKEVMDLFKVKIDGGPASEAITTKNCQCQLIDTIRGLHIPQITHIFNHSEAPTLTALQNLTHLFNVICKVLHFAPKYPILTNLQIINPIDQKSSIFTEKCWKKKADREKLIEGMSWLSKNISHLRESCGIPTMATDRILGTLEEWIRLVIRKETVFERPINSIFSPANLLIDYQIPNISYHS,not soluble
3,MSANVDLNQRPDYDAVLQDIADYVLDYRIDSTEALDTARNCLMDTLGCGLLALRFPECTKHLGPLVEGTLVPHGARVPGTSFRLDPVKAAWDIGCIVRWLDYNDTWLAAEWGHPSDNLGGILAVADHLSQKRLANGEAPLSMRQVLEAMIMAHEIQGVIALENSFNRVGLDHVLLVKVASTAVCAKLMGADREQLLAALSHAFVDGQALRTYRHAPNAGSRKSWAAGDATSRGVRLADIALRGEMGIPGVLSAPQWGFYDVLFSHTSKDLATKPEDKRRFSFPQGYGSYVMENVLFKISFPAEFHAQTAAEAAVRLHPLVKDRLQRISRIVITTHESAIRIISKVGPLANPADRDHCLQYMTAVPLIFGDLVAEHYEDAFHAAHPLIDRLREKMEIVEEPRYSREYLEADKRSIANAVEVFFDDGSSTGQVAVEYPLGHRRRRAEGIPLLQEKFKANLATRFPPQRCQRIFDLCSHQASLEATPVNRFMDLLAI,not soluble
4,MSAQASRQKKSDQEQRAADQALLNAAIEDNAMEQDENFTVIDKLESSGISSGDISKLKEAGYYTYESLAFTTRRELRNVKGISDQKAEKIMKEAMKFVQMGFTTGAEVHVKRSQLVQIRTGSASLDRLLGGGIETGSITEVYGEYRTGKTQLCHSLAVLCQLPIDMGGGEGKCMYIDTNATFRPERIIAIAQRYNMDSAHVLENIAVARAYNSEHLMALIIRAGAMMSESRYAVVIVDCATAHFRNEYTGRGDLAERQMKLSAFLKCLAKLADEYGVAVIITNQVVAQVDGGASMFQADAKKPIGGHIIAHMSTTRLYLRKGKGENRVAKMVQSPNLPEAEATYSITNHGIEDARED,not soluble
5,MSAQRIQKVDILRYDPANDAEPHMQRFEVPFDETMSVLDAIGYVKDHLDKDLSYRWSCRMAICGSCGIMVNGVPKLACKSFLRDYPEGVKIEPLANFPIEKDLIVDMTPFIERLEAIKPYIIGNDRKPEDGTNLQTPEQMARYKQFAGCINCGLCYAACPQFGLNPEFLGPAALTLAHRYNLDSRDNGKAERMKLINGDNGAWGCTFVGYCSEVCPKHVDPAAAVNQGKVESSLDFVIAMLNPDGSPKKVEA,not soluble
6,MSAQYDLYETPDIKQTGEKQPLHPRIVPKGTIGQDEFLDRVHKFTGISRSLLAGAMQSFQNELKDLLANGWIVELGEIGYFSVSLQGPPVMHKKDVRAQSIKLKNINYLPTKQFKREVGYDMRLERTESLTRPKGNGRSEAECLALITAHLEKYPCMTRTDYCHMTGHDKKRALKELNAFIEKEILMRYGAGKQVVYAKKMI,not soluble
7,MSASAPAAEGEGTPTQPASEKEPEMPGPREESEEEEDEDDEEEEEEEKEKSLIVEGKREKKKVERLTMQVSSLQREPFTIAQGKGQKLCEIERIHFFLSKKKTDELRNLHKLLYNRPGTVSSLKKNVGQFSGFPFEKGSVQYKKKEEMLKKFRNAMLKSICEVLDLERSGVNSELVKRILNFLMHPKPSGKPLPKSKKTCSKGSKKERNSSGMARKAKRTKCPEILSDESSSDEDEKKNKEESSDDEDKESEEEPPKKTAKREKPKQKATSKSKKSVKSANVKKADSSTTKKNQNSSKKESESEDSSDDEPLIKKLKKPPTDEELKETIKKLLASANLEEVTMKQICKKVYENYPTYDLTERKDFIKTTVKELIS,soluble
8,MSASEFTLVPTTESDRTYIARLNFLTDVFGDEHADIGADFLEDYRFYVKQWDPTNGGLIAWSPKMIPAGGAWLVWGNNNDHGYGYVSEDIPEVAIAIEPRYRGKGVGSILLNKSLELARTLGAPGLSLSVDDGNPRAKKLYERLGFQHIRHSDAGFSIMCYRF,not soluble
9,MSASSLLEQRPKGQGNKVQNGSVHQKDGLNDDDFEPYLSPQARPNNAYTAMSDSYLPSYYSPSIGFSYSLGEAAWSTGGDTAMPYLTSYGQLSNGEPHFLPDAMFGQPGALGSTPFLGQHGFNFFPSGIDFSAWGNNSSQGQSTQSSGYSSNYAYAPSSLGGAMIDGQSAFANETLNKAPGMNTIDQGMAALKLGSTEVASSVPKVVGSAVGSGSITSNIVASSSLPPATIAPPKPASWADIASKPAKQQPKLKTKNGIAGSSLPPPPIKHNMDIGTWDNKGPVAKAPSQALVQNIGQPTQGSPQPVGQQANNSPPVAQASVGQQTQPLPPPPPQPAQLSVQQQAAQPTRWVAPRNRGSGFGHNGVDGNGVGQSQAGSGSTPSEPHPVLEKLRSINNYNPKDFDWNLKHGRVFIIKSYSEDDIHRSIKYNIWCSTEHGNKRLDAAYRSMNGKGPVYLLFSVNGSGHFCGVAEMKSAVDYNTCAGVWSQDKWKGRFDVRWIFVKDVPNSQLRHIRLENNENKPVTNSRDTQEVPLEKAKQVLKIIASYKHTTSIFDDFSHYEKRQEEEESVKKERQGRGK,soluble
10,MSATAKHDSNASPNSDSEDGHHHNNKKECAIEYLKARLNSASAVACGYLQAFVSKTQDFAKVCFLELQNPVVLVNLLLHSSVVCYLCNGYANHNARFLKGKPNSTVLATTAGALGLLTLDGIISKKYYSRYDKK,soluble
11,MSCINLPTVLPGSPSKTRGQIQVILGPMFSGKSTELMRRVRRFQIAQYKCLVIKYAKDTRYSSSFCTHDRNTMEALPACLLRDVAQEALGVAVIGIDEGQFFPDIVEFCEAMANAGKTVIVAALDGTFQRKPFGAILNLVPLAESVVKLTAVCMECFREAAYTKRLGTEKEVEVIGGADKYHSVCRLCYFKKASGQPAGPDNKENCPVPGKPGEAVAARKLFAPQQILQCSPAN,not soluble
12,MSCSSSSMLFLVLIATTVLIAESRVFYNRFDGGLSSDRFMEQKRDGAEASYDYDANQVIRNTMKRNRQCLLNAGLSQGCDFSDLLHAQTQARKFMSFAGPGK,not soluble
13,MSCVHYKFSSKLNYDTVTFDGLHISLCDLKKQIMGREKLKAADSDLQITNAQTKEEYTDDNALIPKNSSVIVRRIPIGGVKSTSKTYVISRTEPVMGTTKAVCKNTITLFLHNCFYLYNVSVT,not soluble
14,MSDAGGDVQVAPAAVAQGPMDKEGALRAVLRAAHHADGLAKGLHETCKALDKREAHFCVLAENCDEPQYVKLVETLCAEHQIPLIKVADKKIIGEYCGLCKYDKEGKARKVVGCSSAVVTNWGNEEQGRAILTDYFASKN,not soluble
15,MSDDKFDAIVVGAGVAGSVAALVMARAGLDVLVIERGDSAGCKNMTGGRLYAHTLEAIIPGFAVSAPVERKVTREKISFLTEESAVTLDFHRGQPDVPQHASYTVLRNRLDPWLMEQAEQAGAQFIPGVRVDALVREGNKVTGVQAGDDILEANVVILADGVNSMLGRSLGMVPASDPHHYAVGVKEVIGLTPEQINDRFNITGEEGAAWLFAGSPSDGLMAGGFLYTNKDSISLGLVCGLGDIAHAQKSVPQMLEDFKQHPAIRPLISGGKLLEYSAHMVPEGGLAMVPQLVNEGVMIVGDAAGFCLNLGFTVRGMDLAIASAQAAATTVIAAKERADFSANSLAQYKRELEQSCVMRDMQHFRKIPALMENPRLFSQYPRMVADIMNEMFTIDGKPNQPVRKMIMGHAKKIGLINLLKDGIKGATAL,not soluble
16,MSDEKSTTPTAQLDAPADGNMNDLTSLIQGVLQQTQDRFQHMSDQIIRRIDDMTTRIDDLEKNINDLLQSNQVEHPPSAQ,not soluble
17,MSDESANPSCISHLSIGTNDFPRARAFYDAVMAALGCKVILEYPGAVAYGKLYPEFWVQAPIDGRPASVGNGSHVGFFADSKAQVDAFHAAALAAGARDEGAPGPRPLYGEPYYGCFIRDLDGHKVEASYWDMSQGFDAHDHAH,not soluble
18,MSDFLKLVGENIRFLRKKRGLTQEELAEQINLQQAYIGGVERGERNISMLTLQKIAVGLEVSPDEVLNFSNVNLIDNPQREESLSIITSLLHQKNVNELQFILKFLYNFSEFVESNSNK,not soluble
19,MSDHFVSERQALILAQLRQSGRVLAQDLAQNFGVSEDTVRRDLREMAARGECLRVYGGALLSDSTTVPLKTRITEDADRKATLARAVVPLIEPGMVVFIDAGSTNLAIARAIPAGLNLTVVTNTPAIAADLTGRADIDLVLIGGKVDPAVGAAIDAMALRQLELMRPDLCVLGVCGVAAETGLSADVFEDAVFKRLACSASQRVIAAITTEKLGHKAAFHVHDFSPPLCLVLERDADRALVESLSAQGVDVYCGEDDAAPFSHGQVLEHHHHHH,soluble
20,MSDHQDGMKLEDIERQFLDVAQREGGLEAIQPTTGPLENEENLKSSTGGGGGEDDNDRKKRKRSRSRDRDTRRRSRSRDRGERRGGGGGGDRDRSRSRERRRGGGGRDEPRRRGGDDEARSRREPEPQKPREPKKYRFWDVPPTGFETTTPMEYKNMQAAGQVPRGSVQSAVPVVGPSVTCQSRRLYVGNIPFGCNEEAMLDFFNQQMHLCGLAQAPGNPILLCQINLDKNFAFIEFRSIDETTAGMAFDGINFMGQQLKVRRPRDYQPSQNTFDMNSRMPVSTIVVDSANKIFIGGLPNYLTEDQVKELLCSFGPLKAFSLNVDSQGNSKGYAFAEYLDPTLTDQAIAGLNGMQLGDKQLVVQLACANQQRHNTNLPNSASAIAGIDLSQGAGRATEILCLMNMVTEDELKADDEYEEILEDVRDECSKYGIVRSLEIPRPYEDHPVPGVGKVFVEFASTSDCQRAQAALTGRKFANRTVVTSYYDVDKYHNRQF,soluble
21,MSDLYRNKKILAPMVRAGRTPLRLLCLKYGADLCYTEEIVDKKLIEATRVVNEALGTIDYRNGDDIILRLAPEEKGRCILQIGTNSGEKAAKIAQIVGDDVAGIDVNMGCPKPFSIHCGMGAALLTQTEKIVDILTSLKSAAKVPVTCKIRVLDDPEDTLKLVQEIEKCRVSALGVHGRRRDERQPDKCRIDEIRDVAQAVQSIPVISNGLSDEIEQYSDFEKYQLLTETSSTMIARKALSTPSIFRREGCLDKYEDIRNFLELACQYDESYTMTKYVVQRILGADQEYDPRGKATVAAGSVLQICKAFGMEDVYDKWRDERKKKQSKKRARVDDDGVYNIEVSFPLKRLKNSVGFSPTPKMVLHDYCVETKIPKATYEVVKRDDKRFVATACIGDKKYRSGIGQPNLRMAEQVAALAALHGMNIRNLLVGNWEEE,not soluble
22,MSDMSEQSVEIASSQLGTKDFWDQRYELELKNFKQHGDEGEVWFGTSSETRIVKYLIDSKTGKDAKILDLGCGNGSVLRKLRSKGFQSLKGVDYCQKAVDLSAAASKAEREEEEDEELVDIEFEQLDITTPPADFFSSKFDVILDKGTWDAMSLSDEREARLKAYLGFLDNGLSAGGRFVIFSCNFTFDEMCSQFGGGGGSTSLEIVCEVPASHSFSFGGKQGVTSTGAVFRKKTL,not soluble
